Assay results from US20230346885A1 (published 2023).
Positions count from the first letter of the chain named. Blank lines part the entries; values can stand above or below the binder they belong to.

Assays:
Experiment in all cases: binding, other
PIWIL1 peptide on HLA = biological target: T1, PIWIL1 peptide on HLA (human)
T1 peptide: SIAGFVASI

SLC45A2 peptide on HLA = biological target: T2, SLC45A2 peptide on HLA (human)
T2 peptide: YVTPVLLSV

SMC1B peptide on HLA = biological target: T3, SMC1B peptide on HLA (human)
T3 peptide: ALDNTNIGKV

RLN1 peptide on HLA = biological target: T4, RLN1 peptide on HLA (human)
T4 peptide: ALSERQPSL

XAGE1 peptide on HLA = biological target: T5, XAGE1 peptide on HLA (human)
T5 peptide: KMPEAGEEQPQV

- binding result (PIWIL1 peptide on HLA): recognises
B1: TCR of SEQ ID NOs 511 and 512 (TCR, V domains shown)
Valpha: KQEVTQIPVALSVPEGENLVLNCSFTDSAIYNLQWFRQDPGKGLTSLLLIQSSQREQTSGRLNASLDKSSGRSTLYIAASQPGDSATYLCAVSPYNNNDMRFGAGTRLTVKP
Vbeta: NAGVTQTPKFQVLKTGQSMTLLCAQDMNHEYMYWYRQDPGMGLRLIHYSVGEGTTDKGEVPNGYNVSRSTTEDFPLRLLSAAPSQTSVYFCASSFTGDSPLHFGNGTRLTVT

- binding result (SLC45A2 peptide on HLA): recognises
B2: TCR of SEQ ID NOs 575 and 576 (TCR, V domains shown)
Valpha: KQEVTQIPAALSVPEGENLVLNCSFTDSAIYNLQWFRQDPGKGLTSLLLIQSSQREQTSGRLNASLDKSSGRSTLYIAASQPGDSATYLCAALSYNTDKLIFGTGTRLQVFP
Vbeta: NAGVTQTPKFQVLKTGQSMTLQCAQDMNHNSMYWYRQDPGMGLRLIYYSASEGTTDKGEVPNGYNVSRLNKREFSLRLESAAPSQTSVYFCASSEAYLAAFFGQGTRLTVV

- binding result (SMC1B peptide on HLA): recognises
B3: TCR of SEQ ID NOs 585 and 586 (TCR, V domains shown)
Valpha: KQEVTQIPAALSVPEGENLVLNCSFTDSAIYNLQWFRQDPGKGLTSLLLIQSSQREQTSGRLNASLDKSSGRSTLYIAASQPGDSATYLCAVRGAGGTSYGKLTFGQGTILTVHP
Vbeta: NAGVTQTPKFQVLKTGQSMTLQCAQDMNHNSMYWYRQDPGMGLRLIYYSASEGTTDKGEVPNGYNVSRLNKREFSLRLESAAPSQTSVYFCASSDESYGYYGYTFGSGTRLTVV

- binding result (RLN1 peptide on HLA): recognises
B4: TCR of SEQ ID NOs 523 and 524 (TCR, V domains shown)
Valpha: QKEVEQNSGPLSVPEGAIASLNCTYSDRGSQSFFWYRQYSGKSPELIMSIYSNGDKEDGRFTAQLNKASQYVSLLIRDSQPSDSATYLCAVNAGGTSYGKLTFGQGTILTVHP
Vbeta: NAGVTQTPKFRVLKTGQSMTLQCAQDMNHNSMYWYRQDPGMGLRLIYYSASEGTTDKGEVPNGYNVSRLNKREFSLRLESAAPSQTSVYFCASSEIDVWYNSPLHFGNGTRLTVT

- binding result (PIWIL1 peptide on HLA): recognises
B5: TCR of SEQ ID NOs 513 and 514 (TCR, V domains shown)
Valpha: KQEVTQIPAALSVPEGENLVLNCSFTDSAIYNLQWFRQDPGKGLTSLLLIQSSQREQTSGRLNASLDKSSGRSTLYIAASQPGDSATYLCAVGGYNKLIFGAGTRLAVHP
Vbeta: NAGVTQTPKFRVLKTGQSMTLLCAQDMNHEYMYWYRQDPGMGLRLIHYSVGAGITDQGEVPNGYNVSRSTTEDFPLRLLSAAPSQTSVYFCASRATGLTEAFFGQGTRLTVV

- binding result (SMC1B peptide on HLA): recognises
B6: TCR of SEQ ID NOs 581 and 582 (TCR, V domains shown)
Valpha: B5 Valpha with G93F, G94N, Y95D, N96Y, I99S, R105T, L106V, A107T, H109R, P110A
Vbeta: NAGVTQTPKFQVLKTGQSMTLQCAQDMNHEYMSWYRQDPGMGLRLIHYSVGAGITDQGEVPNGYNVSRLNKREFSLRLESAAPSQTSVYFCASSEWFDTEAFFGQGTRLTVV

- binding result (RLN1 peptide on HLA): recognises
B7: TCR of SEQ ID NOs 525 and 526 (TCR, V domains shown)
Valpha: QKEVEQNSGPLSVPEGAIASLNCTYSDRGSQSFFWYRQYSGKSPELIMFIYSNGDKEDGRFTAQLNKASQYVSLLIRDSQPSDSATYLCAVGGYQKVTFGTGTKLQVIP
Vbeta: NAGVTQTPKFGILKIGQSMTLQCAQDMNHNYMYWYRQDPGMGLKLIYYSVGAGITDKGEVPNGYNVSRSTTEDFPLRLELAAPSQTSVYFCASRVDSYNEQFFGPGTRLTVL

- binding result (XAGE1 peptide on HLA): recognises
B8: TCR of SEQ ID NOs 611 and 612 (TCR, V domains shown)
Valpha: KQEVTQIPAALSVPEGENLVLNCSFTDSAIYNLQWFRQDPGKGLTSLLLIQSSQREQTSGRLNASLDKSSGRSTLYIAASQPGDSATYLCAVRPRGDSSYKLIFGSGTRLLVRP
Vbeta: DGGITQSPKYLFRKEGQNVTLSCEQNLNHDAMYWYRQDPGQGLRLIYYSQIVNDFQKGDIAEGYSVSREKKESFPLTVTSAQKNPTAFYLCASSASGSIYNEQFFGPGTRLTVL
